Test results from patent US20170327854A1, “METHODS FOR CELLOBIOSAN UTILIZATION” (Alliance for Sustainable Energy, LLC, priority 2015, published 2017).

Key:
[1] = test system: P. putida strain FJPO3; assay: Growth and mcl-PHA production of strain FJPO3 on levoglucosan; type: cell-based, Pseudomonas putida
From the text: The levoglucosan kinase (lgk) gene from Lipomyces starkeyi was codon optimized using Gene Designer software from DNA 2.0 and synthesized as a gBlock (SEQ ID NO:1). This fragment was cloned into plasmid pMFL76, which is derived from the commercial PCR-Blunt II Topo vector (ThermoFisher), with the addition of two 1-kb genomic regions located in proximity of the rpoS region of the genome from Pseudomonas putida KT2440 to enable homologous recombination mediated genomic integration into strain KT2440. The Ptac-lgk was inserted in between these 1 kb homology regions and transformed into KT2440. A single kanamycin-resistant transformant was isolated and growth in M9 levoglucosan was confirmed, to generate strain FJPO3.
P. putida produces medium chain-length polyhydroxy-alkanoates (mcl-PHAs), which are high-value polymers that can serve as plastics, adhesive precursors, and as precursors to chemical building blocks or hydrocarbons. As mcl-PHAs represent a potential target to generate from pyrolytic sugars, the generation of mcl-PHAs by P. putida using levoglucosan as its sole carbon source as investigated.
Most growths were in a modified formulation of M9 minimal salts. Briefly, 6.78 g Na2PO4 (anhydrous), 3 g KH2PO4, and 0.5 g NaCl were dissolved in 750 mL deionized H2O. The pH was adjusted to 7.4 with 10 N NaOH and brought to 900 mL with H2O. The solution was autoclaved for 15 minutes at 121° C. and allowed to cool. […]
Growth curves were generated using a Bioscreen C automated microbiology growth curve analysis system from Growth Curves USA. […] Spectrophotometric blanks were subtracted from the measured values and each growth curve represents the average of three independent cultures. The maximum specific growth rate (μmax) was calculated as the maximum slope of the log phase of the growth curve over any given 4 hour period during the course of the experiment. […]
One mL of saturated cultures was centrifuged at 5,000×g for 5 minutes. […] Nile Red fluorescence was detected between 560 and 590 nm using band-pass filtering.

[2] = β-Glucosidase mediated cleavage of cellobiosan (HPLC); type: biochemical; details: cellobiosan 2 mg/mL, 2.5 to 20 μg of enzyme (four enzyme loadings), 40° C., 90 minutes, FIG. 5
Description: (§1) Following the β-glucosidase reaction period, the tubes were placed on ice, filtered through a 0.2 μm filter and analyzed via High-Performance Liquid Chromatography (HPLC; Agilent 1100 series system (Agilent USA, Santa Clara, Calif.)) using a Shodex SP0810 carbohydrate column with de-ashing guard cartridges (BioRad Laboratories, Hercules, Calif.) run at 85° C. with ultra-pure water as the isocratic mobile phase at a flow rate of 0.6 mL/min. A refractive index detector was used for compound detection. By-products were identified by co-elution at the same retention time with pure compounds. Standard curves for substrate (cellobiosan) and products (glucose and levoglucosan) were also generated in order to quantify results. Additionally, enzymes were analyzed via HPLC in buffer alone (without cellobiosan) to ensure no carry-over products inherent to the enzyme preparations.
Each reaction was set up in 1.5 mL microcentrifuge tubes using cellobiosan at a concentration of 2 mg/mL in the following buffers: 50 mM sodium maleate, pH 6.5 (T. maritima and Agrobacterium sp.), and 100 mM sodium acetate, pH 5.0 (P. chrysosporium and A. niger). For each reaction, 2.5 to 20 μg of enzyme was loaded and the total reaction volume was 400 μL. An additional enzyme-free reaction was run simultaneously to ensure cellobiosan cleavage was enzyme-dependent. Reactions were incubated at 40° C. using a dry-block for 90 minutes. In a separate reaction evaluating the substrate concentration, 0.125 μM of purified A. niger β-glucosidase was incubated at 40° C. in a 96-well microtiter plate with 0, 0.5, 1, 2, 4, 8, 16 or 32 mM cellobiose or cellobiosan. Reactions were initiated by the addition of enzyme and quenched by boiling in a thin walled PCR tube at 0.5, 1, 5 and 10 minutes.
as §1, with “the” for “the β-glucosidase”, “periods,” for “period,”, “Agilent1100” for “Agilent 1100”, “ml min^−1.” for “mL/min.”, “(without the addition of” for “(without”

[3] = test system: P. putida strains FJPO3 and KT2440; assay: Growth of P. putida strains on cellobiose or cellobiosan with addition of abg β-glucosidase; type: cell-based, Pseudomonas putida
Description: Most growths were in a modified formulation of M9 minimal salts. Briefly, 6.78 g Na2PO4 (anhydrous), 3 g KH2PO4, and 0.5 g NaCl were dissolved in 750 mL deionized H2O. The pH was adjusted to 7.4 with 10 N NaOH and brought to 900 mL with H2O. The solution was autoclaved for 15 minutes at 121° C. and allowed to cool. One hundred μL of 1 M CaCl2 (100 μM final) and 2 mL of 1 M MgSO4-7H2O (2 mM Final), 1 mL of 100 mM FeSO4, (100 μM final) and 10 mL 1 M (NH4)2SO4 (10 mM final) was added. In the case of FIG. 2, 1 mM (NH4)2SO4, was used to induce mcl-PHA production.
Growth curves were generated using a Bioscreen C automated microbiology growth curve analysis system from Growth Curves USA. Overnight cultures were diluted to 0.02 OD in a total volume of 300 μL per well. Incubations were performed at 30° C. with continuous shaking and turbidity measurements (OD420-580) were collected every 15 minutes for the duration of the experiments. Spectrophotometric blanks were subtracted from the measured values and each growth curve represents the average of three independent cultures. The maximum specific growth rate (μmax) was calculated as the maximum slope of the log phase of the growth curve over any given 4 hour period during the course of the experiment. […]

O[C@@H]1[C@@H](O)[C@@H]2OC[C@@H](O2)[C@H]1O [levoglucosan]
growth profile of FJPO3 compared with glucose ([1]; M9 medium, 7.5 g/L levoglucosan vs 7.5 g/L glucose, FIG. 2 Panel A): similar | concentration at which FJPO3 has the capacity to grow ([1]; M9 medium, FIG. 2 Panel B): ≤ 60 g/L | mcl-PHA production by FJPO3 (Nile Red fluorescence) ([1]; N-limited medium [M9 1mM (NH4)2SO4], levoglucosan as sole carbon source, FIG. 2 Panel C): produces mcl-PHAs

bgl1A: P. chrysosporium β-glucosidase, GH3, GenBank AAC26489, SEQ ID NO: 4
cleavage of cellobiosan to generate glucose and levoglucosan [2]: able to cleave cellobiosan

B1: bglA: T. maritima β-glucosidase, GH1, GenBank CAA52276.1, SEQ ID NO: 5 (protein, listed as Thermotoga maritima)
chain: MNVKKFPEGFLWGVATASYQIEGSPLADGAGMSIWHTFSHTPGNVKNGDTGDVACDHYNRWKEDIEIIEKLGVKAYRFSISWPRILPEGTGRVNQKGLDFYNRIIDTLLEKGITPFVTIYHWDLPFALQLKGGWANREIADWFAEYSRVLFENFGDRVKNWITLNEPWVVAIVGHLYGVHAPGMRDIYVAFRAVHNLLRAHARAVKVFRETVKDGKIGIVFNNGYFEPASEKEEDIRAVRFMHQFNNYPLFLNPIYRGDYPELVLEFAREYLPENYKDDMSEIQEKIDFVGLNYYSGHLVKFDPDAPAKVSFVERDLPKTAMGWEIVPEGIYWILKKVKEEYNPPEVYITENGAAFDDVVSEDGRVHDQNRIDYLKAHIGQAWKAIQEGVPLKGYFVWSLLDNFEWAEGYSKRFGIVYVDYSTQKRIVKDSGYWYSNVVKNNGLED
cleavage of cellobiosan to generate glucose and levoglucosan [2]: able to cleave cellobiosan

B2: bgl1: A. niger β-glucosidase, GH3, GenBank AJ132386, SEQ ID NO: 3 (protein)
chain: MRFTLIEAVALTAVSLASADELAYSPPYYPSPWANGQGDWAQAYQRAVDIVSQMTLDEKVNLTTGTGWELELCVGQTGGVPRLGVPGMCLQDSPLGVRDSDYNSAFPAGMNVAATWDKNLAYLRGKAMGQEFSDKGADIQLGPAAGPLGRSPDGGRNWEGFSPDPALSGVLFAETIKGIQDAGVVATAKHYIAYEQEHFRQAPEAQGFGFNISESGSANLDDKTMHELYLWPFADAIRAGAGAVMCSYNQINNSYGCQNSYTLNKLLKAELGFQGFVMSDWAAHHAGVSGALAGLDMSMPGDVDYDSGTSYWGTNLTISVLNGTVPQWRVDDMAVRIMAAYYKVGRDRLWTPPNFSSWTRDEYGYKYYYVSEGPYEKVNQYVNVQRNHSELIRRIGADSTVLLKNDGALPLTGKERLVALIGEDAGSNPYGANGCSDRGCDNGTLAMGWGSGTANFPYLVTPEQAISNEVLKHKNGVFTATDNWAIDQIEALAKTASVSLVFVNADSGEGYINVDGNLGDRRNLTLWRNGDNVIKAAASNCNNTIVVIHSVGPVLVNEWYDNPNVTAILWGGLPGQESGNSLADVLYGRVNPGAKSPFTWGKTREAYQDYLVTEPNNGNGAPQEDFVEGVFIDYRGFDKRNETPIYEFGYGLSYTTFNYSNLEVQVLSAPAYEPASGETEAAPTFGEVGNASDYLYPSGLQRITKFIYPWLNGTDLEASSGDASYGQDSSDYLPEGATDGSAQPILPAGGGPGGNPRLYDELIRVSVTIKNTGKVAGDEVPQLYVSLGGPNEPKIVLRQFERITLQPSEETKWSTTLTRRDLANWNVEKQDWEITSYPKMVFVGSSSRKLPLRASLPTVH
modifications: Aspergillus niger
cleavage of cellobiosan to generate glucose and levoglucosan [2]: able to cleave cellobiosan

B3: abg: Agrobacterium sp. β-glucosidase, GH1, GenBank AAA22085.1, SEQ ID NO: 6 (protein, listed as Agrobacterium sp.)
chain: MTDPNTLAARFPGDFLFGVATASFQIEGSTKADGRKPSIWDAFCNMPGHVFGRHNGDIACDHYNRWEEDLDLIKEMGVEAYRFSLAWPRIIPDGFGPINEKGLDFYDRLVDGCKARGIKTYATLYHWDLPLTLMGDGGWASRSTAHAFQRYAKTVMARLGDRLDAVATFNEPWCAVWLSHLYGVHAPGERNMEAALAAMHHINLAHGFGVEASRHVAPKVPVGLVLNAHSAIPASDGEADLKAAERAFQFHNGAFFDPVFKGEYPAEMMEALGDRMPVVEAEDLGIISQKLDWWGLNYYTPMRVADDATPGVEFPATMPAPAVSDVKTDIGWEVYAPALHTLVETLYERYDLPECYITENGACYNMGVENGQVNDQPRLDYYAEHLGIVADLIRDGYPMRGYFAWSLMDNFEWAEGYRMRFGLVHVDYQTQVRTVKNSGKWYSALASGFPKGNHGVAKG
growth of FJPO3 and KT2440 in M9 medium containing cellobiosan plus abg ([3]; cellobiosan, twenty micrograms of enzyme, 30° C., FIG. 6): both FJPO3 and KT2440 are capable of utilizing the glucose component of cellobiosan | growth profiles of KT2440 and FJPO3 in M9 medium containing cellobiose with addition of abg ([3]; cellobiose, FIG. 6 Panel A): virtually indistinguishable | cleavage of cellobiosan to generate glucose and levoglucosan [2]: able to cleave cellobiosan
